Test results published in US20180230235A1.

Biological target: Human CAIX (carbonic anhydrase IX) (human) (UniProt Q16790)
Assay: ELISA screening, biotinylated human CAIX 0.25 ug/ml, negative control wells

Q: “negative control of the ELISA screening of the maturated library (designed binder)” was tested. Which absorbance at 450 nm did it give?
A: Its absorbance at 450 nm is 0.1 AU.
